Assay results from doi:10.1101/743195.

Molecular target: human low-density lipoprotein (LDL) particles (human)
Assay: co-sedimentation

| percent inhibition of LDL binding against WT [%] | percent decrease of LDL binding [%] | Substance |
| --- | --- | --- |
| > 90 | – | PCSK9 A44P (from UniProt Q8NBP7) (natural protein) |
| – | > 50 | PCSK9 Y38A (from UniProt Q8NBP7) (natural protein) |
